Assay results: patent US20230105457A1, “Immunogenic Compounds For Treatment Of Adrenal Cancer” (ENTEROME S.A., priority 2019, published 2023)
Read-outs that look alike come from different tables or passages of the source.

Tests used:
[1] = target: HLA-A*0201 (Homo sapiens, UniProt P04439, D140Y/D185E/D98H/E176V/E277Q/G131W/G231S/I119V/I121R/I166T/I218V/L300P/L318F/N151K/N90K/P208A/P217A/Q86G/Q94H/R138H/R169H/T345S); details: for Mean fluorescence intensity: T2 cells
[2] = test system: splenocytes of β/A2/DR3 mice; assay: ELISPOT-IFNγ assay on splenocytes of vaccinated β/A2/DR3 mice (Example 2); format: in vivo, mouse; details: label = vaccination peptide
Text: Briefly, 14 β/A2/DR3 mice were assigned randomly (based on mouse sex and age) to two experimental groups, each immunized with a specific vaccination peptide (vacc-pAg) combined to a common helper peptide (h-pAg) (as outlined in Table 7 below). The vacc-pAg were compared in couples (group 1 vs. group 2). Thereby, both native and optimized versions of a single peptide were compared in each wave.
The animals were immunized on day 0 (d0) with a prime injection, and on d14 with a boost injection. Each mouse was injected s.c. at tail base with 100 μL of an oil-based emulsion that contained: • 100 μg of vacc-pAg (25 μL of 4 mg/mL stock per mouse); • 150 μg of h-pAg (15 μL of 10 mg/mL stock per mouse); • 10 μL of PBS to reach a total volume of 50 μL (per mouse); • Incomplete Freund's Adjuvant (IFA) added at 1:1 (v:v) ratio (50 μL per mouse).
A separate emulsion was prepared for each vacc-pAg, as follows: IFA reagent was added to the vacc-pAg/h-pAg/PBS mixture in a 15 mL tube and mixed on vortex for repeated cycles of 1 min until forming a thick emulsion.
Seven days after the boost injection (i.e. on d21), the animals were euthanized and the spleen was harvested. Splenocytes were prepared by mechanical disruption of the organ followed by 70 μm-filtering and Ficoll density gradient purification.
The splenocytes were immediately used in an ELISPOT-IFNγ assay (Table 8). Experimental conditions were repeated in quadruplets, using 2*105 total splenocytes per well, and were cultured in presence of vacc-pAg (10 μM), Concanavalin A (ConA, 2.5 μg/mL) or medium-only to assess for their capacity to secrete IFNγ. The commercial ELISPOT-IFNγ kit (Diaclone Kit Mujrine IFNγ ELISpot) was used following the manufacturer's instructions, and the assay was performed after about 16 h of incubation.
Spots were counted on a Grand ImmunoSpot® S6 Ultimate UV Image Analyzer interfaced to the ImmunoSpot 5.4 software (CTL-Europe). Data plotting and statistical analysis were performed with the Prism-5 software (GraphPad Software Inc.).
The cell suspensions were also analyzed by flow cytometry, for T cell counts normalization. The monoclonal antibody cocktail (data not shown) was applied on the purified leucocytes in presence of Fc-block reagents targeting murine (1:10 diluted ‘anti-mCD16/CD32 CF11 clone’—internal source) Fc receptors. Incubations were performed in 96-well plates, in the dark and at 4° C. for 15-20 minutes. The cells were washed by centrifugation after staining to remove the excess of monoclonal antibody cocktail, and were re-suspended in PBS for data acquisition.
The data were then normalized as a number of specific spots (the average counts obtained in the ‘medium only’ condition being subtracted) per 10^6 total T cells.
The individual average values (obtained from the quadruplicates) were next used to plot the group average values (see FIG. 3A). As the functional capacity of T cells might vary from individual to individual, the data were also expressed as the percentage of the ConA response per individual (see FIG. 3B).

[3] = test system: CD8 T cells from PBMC of HLA-A*02 healthy donors; assay: Detection of peptide-specific CD8 T cells with pMHC multimers after in vitro amplification (Example 14); format: cell-based, human; details: one HLA-A2 healthy donor, after in vitro amplification with bacteria peptide loaded T2 cells
Description: Identification and quantification of T cells specific clones were performed using peptide MHC multimers (pMHC). pMHC multimers are recombinantly produced and coupled with fluorescent labels. Binding of pMHC multimers to T cells allows identification and sorting by flow cytometry of specific T cells harboring TCRs able to specifically recognize selected pMHC complexes.
In vitro amplification method and specific pMHC multimers have been used for identification of IL13RA2-L-, BIRC5-B1- and FOXM1-B2-specific T cells. pMHC multimers were generated for all the bacteria peptides and their respective human counterpart. PBMCs from several HLA-A*02 healthy donors (up to 19 donors) were collected, enriched after CD137 and CD8 selection and subjected to multiple rounds of in vitro amplification with bacteria peptides loaded T2 cells to increase the number of specific T cell clones. Detection of bacteria and human peptide-specific CD8 T cells using cytometry analysis with the fluorescent multimer was performed on enriched CD8 T cell populations.

Sequence: WLPFGFILI [IL13RA2-H, reference compound]
- Concentration of peptide that induces 20% of HLA-A2 expression ([1]; T2 cell line, HLA-A*0201, Example 13, protocol as in Example 3): 62.3 µM
- Concentration that induces 20% of expression of the HLA-A*0201 ([1]; T2 cells (Example 1)): 100 µM
- Mean fluorescence intensity ([1]; peptide at 0.1 μM (Example 1)): 7.46
- Mean fluorescence intensity ([1]; peptide at 1 μM (Example 1)): 9.41
- Mean fluorescence intensity ([1]; peptide at 10 μM (Example 1)): 11.61
- Mean fluorescence intensity ([1]; peptide at 100 μM (Example 1)): 18.64
- Percentage of ConA-induced response (mean+/−SEM), ELISPOT-IFNγ ([2]; ex vivo restimulation with IL13RA2-B pAg (10 μM)): 2.0%+/−0.8
- Percentage of ConA-induced response (mean+/−SEM), ELISPOT-IFNγ ([2]; ex vivo restimulation with IL13RA2-H pAg (10 μM)): 1.1%+/−0.8
- Peptide-specific CD8 T cells detected (pMHC multimer) [3]: 0.22%
